Laboratory results as given in patent US20220306715A1.

Assays:
[1] = target: interleukin-6 (IL-6) receptor; test: cell-based or functional assay
[2] = target: anti-IL-6ST antibody; test: sandwich ELISA on the MSD platform; capture: plate-bound anti-IL-6ST antibody; detection: anti-IL-12A antibody

EC50 of induction of apoptosis in IL-6 dependent DS-1 cells cultured 24 hours with IL-6 (caspase 3/7 luciferase assay) [1] | EC50 (read off the curve) [2] | Substance
317 nM | – | tocilizumab (antibody)
– | 0.7 µg/mL | mIL-6R-Fc-IL-35 chimeric protein (from UniProt Q00560 23-617; P43431 23-215; P22272 20-364; O35228 19-228) (Fc fusion)
